This series has as its system CC(=O)OC[C@H](N)C(=O)O. In words: purified protein. The settings on record: 30 mM Na2S, MOPS, 37 °C, no glycerol, cooperative.

The record followed here is paper doi:10.1101/2025.03.26.645513v1.

In turn, NgCysK (Neisseria gonorrhoeae FA 1090) came in with a K0.5 of 1.541 ± 0.306 mM.
